In publication PMC8901805:

Biological target: FITC-BIM SAHBA2
Test: fluorescence polarisation; direct binding: FITC-BIM SAHBA2 (50 nM) with serial dilutions of full-length BAX, read at 20 min

EC75: 500 nM
Substance: Human, recombinant and tagless BAX (from UniProt Q07812 1-192) (natural protein)
